Laboratory results reported in patent US20120165267A1.

Tests used:
[1] = target: DR4-selective phage clone 9 (human) (UniProt P50591); assay: competition phage ELISA: phage clone Apo.DR4-9 at a fixed concentration on wells coated with DR4-IgG, competed by rising soluble DR4-IgG (axis in nM), bound phage detected with anti-M13 antibody-HRP, A450; IC50 from a 4-parameter fit, second value in the IC50 box beside the legend
[2] = target: wild-type (native sequence) Apo2L/TRAIL(96-281) displayed on phage (human) (UniProt P50591); assay: competition phage ELISA: wild-type Apo2L/TRAIL phage (ApoWT) at a fixed concentration on wells coated with DR4-IgG, competed by rising soluble DR4-IgG (axis in nM), bound phage detected with anti-M13 antibody-HRP, A450; IC50 from a 4-parameter fit, fifth value in the IC50 box beside the legend
[3] = target: DR4-selective phage clone 8 (human) (UniProt P50591); assay: competition phage ELISA: phage clone Apo.DR4-8 at a fixed concentration on wells coated with DR4-IgG, competed by rising soluble DR4-IgG (axis in nM), bound phage detected with anti-M13 antibody-HRP, A450; IC50 from a 4-parameter fit, first value in the IC50 box beside the legend
[4] = target: DR4-selective phage clone 13 (human) (UniProt P50591); assay: competition phage ELISA: phage clone Apo.DR4-13 at a fixed concentration on wells coated with DR4-IgG, competed by rising soluble DR4-IgG (axis in nM), bound phage detected with anti-M13 antibody-HRP, A450; IC50 from a 4-parameter fit, fourth value in the IC50 box beside the legend
[5] = target: DR4-selective phage clone 11 (human) (UniProt P50591); assay: competition phage ELISA: phage clone Apo.DR4-11 at a fixed concentration on wells coated with DR4-IgG, competed by rising soluble DR4-IgG (axis in nM), bound phage detected with anti-M13 antibody-HRP, A450; IC50 from a 4-parameter fit, third value in the IC50 box beside the legend

DR4-IgG, sequence (O00220 24-241 H141R/R209T limits assumed): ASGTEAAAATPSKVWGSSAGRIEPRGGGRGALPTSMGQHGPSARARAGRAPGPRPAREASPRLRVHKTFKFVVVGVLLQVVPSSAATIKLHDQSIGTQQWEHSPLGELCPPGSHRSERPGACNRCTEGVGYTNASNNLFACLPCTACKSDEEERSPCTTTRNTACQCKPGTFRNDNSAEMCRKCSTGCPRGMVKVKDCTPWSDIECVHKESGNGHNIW

IC50 [1]: 1.1 nM | IC50 [2]: 2.8 nM | IC50 [3]: 1.3 nM | IC50 [4]: 6.7 nM | IC50 [5]: 4.2 nM
Substance: DR4-IgG (from UniProt O00220 24-241) (Fc fusion)
